This is an account of results in PMC13395435.

Test [1] addresses 3xHA-NLuc-dSP-AVR-Pia (UniProt B9WZW9). As to the kind of experiment: split luciferase complementation assay. The settings on record: parent: est. 3400; read off a plot.
The target in test [2] is OsHIPP21-HMA (rice). Put plainly: ITC.
The target of test [3] is OsHPP09-HMA (rice). Put plainly: ITC. For orientation: In ITC the heat of successive injections is recorded.
In test [4] the target is OsHPP10-HMA (rice). Put plainly: ITC.
The target of test [5] is OsHPP11-HMA (rice). As to the kind of experiment: ITC.
The target in test [6] is recombinant OsHIPP21-HMA (rice). As to the kind of experiment: ITC.
For test [7], the target named is recombinant OsHPP09-HMA (rice). Put plainly: ITC.
For test [8], the target named is recombinant OsHPP10-HMA (rice). As to the kind of experiment: ITC.
The target in test [9] is recombinant OsHPP11-HMA (rice). Put plainly: ITC.
The target of test [10] is recombinant OsHPP09-HMA (rice). As to the kind of experiment: NMR titration.

Where “and” joins values, the source holds several entries; their conditions need not be identical. Identical values can stand only once. Bounds are passed on as bounds.

On to 3xFlag-CLuc-OsHPP09 full-length A37W, for which the response in test [1] was 1300.
Same read-out and setting: in the case of 3xFlag-CLuc-OsHPP09 full-length D33A it was 2800; in that of 3xFlag-CLuc-OsHPP09 full-length D33H, 2600; in that of 3xFlag-CLuc-OsHPP09 full-length D33R, 2000.
In the case of 3xFlag-CLuc-OsHPP09 full-length K19A, the response in test [1] worked out at 1800.
Turning to 3xFlag-CLuc-OsHPP09 full-length K19W, the response in [1] stood at 1500.
On the same count and under the same terms, under 3xFlag-CLuc-OsHPP09 full-length Q20A stands 3100.
Broadly, the Kd is a measure of binding affinity in units of concentration. For the substance AVR-Pia (natural protein), the Kd was 1.97 µM and 2.33 µM in test [2]; 0.125 µM and 0.185 µM in test [3]; 6.51 µM and 7.47 µM in test [4]; 0.925 µM and 0.929 µM in test [5].
“recombinant AVR-Pia (from UniProt B9WZW9 1-85) (natural protein)”: the Kd in test [6] is 1.29 µM; in test [7] it was 0.115 µM; in test [8], 5.26 µM; in test [9] it was 0.772 µM; in [10] it was < 0.1 µM.
